For the series, the system named is NF-kB (endogenous, A549 cells) (Homo sapiens). Kind of series: cell_activity. The note with it: A549 MTT, 1 pmol RNA transfected; 89% day 1; indirect readout.

Consider “AAAAAAAAAAGAUCUUGAAACUGUUUUAAGGUUGGCCGAUCUUAAAAAA [NF-kB aptamer, circular RNA]”, for which the activity (% viability day 2) stood at 86.

Values taken from patent publication US20220305128.
